Results published in doi:10.1101/2021.01.08.425906.

Molecular target: CagFbFP-I52T-Q148K (Chloroflexus aggregans) (UniProt B8GAY9)
Experiment: crystal structure

stoichiometry N: 2
Substance: CagFbFP-I52T-Q148K (from UniProt B8GAY9 47-153) (domain or fragment)
